From patent publication US20230125550A1 (ARCELLX, published 2023)
Positions count from the first letter of the chain named.

B1: SEQ ID NO: 409 (designed binder)
chain: MGSWVEFHMRLDAIYERLDALGGSEAELAAFEKEIAAFESELQAYKGKGNPEVEWLRTAAANIRVELQAYRHN
notes: D domain, on phage
B2: SEQ ID NO: 412 (designed binder)
chain: MGSWSEFYVRVDAIYARLSALGGSEAELAAFEKEIAAFESELQAYKGKGNPEVEKLRVWAANIRHELQAYRHN
notes: D domain, on phage
B3: SEQ ID NO: 417 (designed binder)
chain: B1 chain with V5H, H8G, M9V, E16D, D19M, W55F, T58Q, V65S
notes: D domain, on phage
B4: SEQ ID NO: 405 (designed binder)
chain: B1 chain with V5Y, M9H, D19L, T58S, A59S, V65K
notes: D domain, on phage
B5: SEQ ID NO: 423 (designed binder)
chain: B1 chain with H8S, M9I, E16T, D19V, W55M, T58K, A59G, V65K
notes: D domain, on phage
B6: SEQ ID NO: 408 (designed binder)
chain: B1 chain with H8Y, M9T, E16G, T58Q, A59V, V65M
notes: D domain, on phage
B7: SEQ ID NO: 414 (designed binder)
chain: B1 chain with M9L, E16G, D19M, W55N, T58V, A59W, V65N
notes: D domain, on phage
B8: SEQ ID NO: 326 (designed binder)
chain: MGSWTEFSIRLEAIYDRLVALGGSEAELAAFEKEIAAFESELQAYKGKGNPEVEVLRTYAAFIRHELQAYRHN
notes: D domain, on phage
B9: SEQ ID NO: 424 (designed binder)
chain: B2 chain with S5V, V9I, V11L, A16V, S19M, V58S, W59Y, H65Q
notes: D domain, on phage
B10: SEQ ID NO: 418 (designed binder)
chain: B1 chain with V5T, H8N, M9L, E16D, D19M, T58A, A59S, N62A
notes: D domain, on phage
B11: SEQ ID NO: 420 (designed binder)
chain: B1 chain with H8N, M9W, E16D, D19V, T58V, A59S, N62K, V65G
notes: D domain, on phage
B12: SEQ ID NO: 413 (designed binder)
chain: B2 chain with Y8H, V11L, S19D, K55R, V58E, H65R
notes: D domain, on phage
B13: SEQ ID NO: 411 (designed binder)
chain: B1 chain with V5N, H8V, M9I, D19L, W55Y, T58M, V65M
notes: D domain, on phage
B14: SEQ ID NO: 416 (designed binder)
chain: B1 chain with H8N, M9I, D19Y, W55K, T58H, A59W, N62S, V65R
notes: D domain, on phage
B15: SEQ ID NO: 403 (designed binder)
chain: B1 chain with V5S, H8N, D19T, T58H, A59S, N62L, V65L
notes: D domain, on phage
B16: SEQ ID NO: 422 (designed binder)
chain: B1 chain with V5T, H8A, M9W, E16D, D19L, T58H, A59V, V65R
notes: D domain, on phage
B17: SEQ ID NO: 419 (designed binder)
chain: B1 chain with V5T, H8N, M9L, E16G, D19S, W55F, T58A
notes: D domain, on phage
B18: SEQ ID NO: 407 (designed binder)
chain: B1 chain with V5T, H8Y, M9V, T58M, A59V, V65T
notes: D domain, on phage
B19: SEQ ID NO: 415 (designed binder)
chain: B1 chain with H8E, Y15V, E16G, D19Y, W55K, T58R, A59W, V65S
notes: D domain, on phage
B20: SEQ ID NO: 402 (designed binder)
chain: B1 chain with V5S, H8N, D19T, T58H, A59S, N62R, V65L
notes: D domain, on phage
B21: SEQ ID NO: 325 (designed binder)
chain: B8 chain with F62N
notes: D domain, on phage
B22: SEQ ID NO: 421 (designed binder)
chain: B1 chain with V5N, H8A, M9W, E16S, D19A, T58V, V65Y
notes: D domain, on phage
B23: SEQ ID NO: 404 (designed binder)
chain: B1 chain with V5I, H8N, D19V, T58K, A59V, V65L
notes: D domain, on phage
B24: SEQ ID NO: 410 (designed binder)
chain: B2 chain with S5Y, Y8A, V9I, V11L, A16E, S19H, K55Y, H65T
notes: D domain, on phage
B25: SEQ ID NO: 406 (designed binder)
chain: B1 chain with V5Y, H8A, M9K, D19V, T58S, A59S, V65E
notes: D domain, on phage
B26: SEQ ID NO: 324 (designed binder)
chain: B8 chain with T5Y, S8V, Y15E, V19W, T58W, F62D
notes: D domain, on phage
B27: SEQ ID NO: 318 (designed binder)
chain: MGSWVEFWFRLEAIDSRLWALGGSEAELAAFEKEIAAFESELQAYKGKGNPEVEWLREEAAAIREDLQAYRHN
notes: D domain, on phage
B28: SEQ ID NO: 380 (designed binder)
chain: B27 chain with V5F, W8E, F9D, D15Y, S16Q, W19D, E58D, A62W, E65S
notes: D domain, on phage
B29: SEQ ID NO: 363 (designed binder)
chain: B1 chain with H8D, D12S, Y15W, D19I, T58E, A59D, N62E, V65E, E66F
notes: D domain, on phage
B30: SEQ ID NO: 331 (designed binder)
chain: B27 chain with W8D, F9Q, D15Y, S16D, W19Y, E59D, A62Q, E65K, D66W
notes: D domain, on phage
B31: SEQ ID NO: 316 (designed binder)
chain: B27 chain with V5T, W8H, F9D, S16D, W55Y, A62Q, E65W, D66E
notes: D domain, on phage
B32: SEQ ID NO: 383 (designed binder)
chain: MGSWFEFQDRLWAIDNRLWALGGSEAELAAFEKEIAAFESELQAYKGKGNPEVEELRDHAAMIRWELQAYRHN
notes: D domain, on phage
B33: SEQ ID NO: 321 (designed binder)
chain: B27 chain with V5S, W8I, F9T, S16D, W55I, A62E, E65Q, D66H
notes: D domain, on phage
B34: SEQ ID NO: 370 (designed binder)
chain: MGSWYEFWDRLDALEDRLWALGGSEAELAAFEKEIAAFESELQAYKGKGNPEVEYLRDSAAFIREELQAYRHN
notes: D domain, on phage
B35: SEQ ID NO: 332 (designed binder)
chain: MGSWVEFHDRLEAIEDRLLALGGSEAELAAFEKEIAAFESELQAYKGKGNPEVEDLREYAAGIRWFLQAYRHN
notes: D domain, on phage
B36: SEQ ID NO: 317 (designed binder)
chain: B34 chain with Y5A, W8E, D12W, L14I, D58E, S59E, F62A, E65F
notes: D domain, on phage
B37: SEQ ID NO: 330 (designed binder)
chain: B8 chain with T5I, S8Y, I9D, V19D, V55W, T58E, Y59D, H65S, E66W
notes: D domain, on phage
B38: SEQ ID NO: 372 (designed binder)
chain: B32 chain with F5D, Q8V, D15E, N16E, D58I, H59Q, M62I, W65E, E66A
notes: D domain, on phage
B39: SEQ ID NO: 379 (designed binder)
chain: B27 chain with V5F, F9D, D15W, S16E, W19D, W55E, E58R, A62I
notes: D domain, on phage
B40: SEQ ID NO: 368 (designed binder)
chain: B34 chain with W8Y, D9E, L14I, D16E, Y55V, S59W, F62W, E66D
notes: D domain, on phage
B41: SEQ ID NO: 329 (designed binder)
chain: B35 chain with L19Y, D55W, Y59D, G62Y, W65S, F66I
notes: D domain, on phage
B42: SEQ ID NO: 397 (designed binder)
chain: B27 chain with V5M, W8E, F9E, E12W, E58S, A62W, E65M, D66E
notes: D domain, on phage
B43: SEQ ID NO: 371 (designed binder)
chain: B34 chain with Y5M, W8V, L14I, D16S, Y55W, D58I, S59E
notes: D domain, on phage
B44: SEQ ID NO: 322 (designed binder)
chain: B27 chain with V5Y, W8E, F9T, D15Y, S16D, W55L, E58V, A62E
notes: D domain, on phage
B45: SEQ ID NO: 320 (designed binder)
chain: B27 chain with V5S, F9Q, D15E, S16D, E59N, A62M, E65D, D66E
notes: D domain, on phage
B46: SEQ ID NO: 382 (designed binder)
chain: B32 chain with F5Y, Q8E, D58V, M62D, W65D, E66D
notes: D domain, on phage
B47: SEQ ID NO: 367 (designed binder)
chain: B27 chain with W8Y, F9S, E12D, D15E, S16D, E58I, E59A, A62S
notes: D domain, on phage
B48: SEQ ID NO: 364 (designed binder)
chain: B1 chain with H8D, M9Q, D19Y, T58D, A59E, N62E, V65E, E66H
notes: D domain, on phage
B49: SEQ ID NO: 381 (designed binder)
chain: B32 chain with Q8H, N16E, E55I, D58E, H59E, M62D, W65L, E66D
notes: D domain, on phage
B50: SEQ ID NO: 328 (designed binder)
chain: B35 chain with D9E, L19M, D55Y, Y59D, G62F, W65Q, F66L
notes: D domain, on phage
B51: SEQ ID NO: 319 (designed binder)
chain: B27 chain with F9Q, D15E, W55F, A62E, E65W, D66E
notes: D domain, on phage
B52: SEQ ID NO: 369 (designed binder)
chain: B32 chain with Q8D, D15E, E55V, H59N, M62W, W65E, E66I
notes: D domain, on phage
B53: SEQ ID NO: 323 (designed binder)
chain: MGSWTEFYYRLEAIEDRLWALGGSEAELAAFEKEIAAFESELQAYKGKGNPEVEFLRVEAANIRDMLQAYRHN
notes: D domain, on phage

Target: T1, recombinant human CD123-Fc (human, UniProt P26951 19-305)
T1 construct: not shown: Fc part of CD123-Fc
T1 sequence: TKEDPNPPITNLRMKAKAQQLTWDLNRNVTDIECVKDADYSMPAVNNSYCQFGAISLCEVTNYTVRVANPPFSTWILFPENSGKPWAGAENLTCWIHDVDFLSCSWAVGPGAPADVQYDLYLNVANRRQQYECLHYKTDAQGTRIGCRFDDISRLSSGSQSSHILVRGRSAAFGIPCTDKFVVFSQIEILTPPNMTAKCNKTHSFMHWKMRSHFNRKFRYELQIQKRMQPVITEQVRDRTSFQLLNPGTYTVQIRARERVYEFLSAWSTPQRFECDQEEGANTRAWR
Experiment: phage ELISA, captured CD123-Fc
Description: Individual colonies containing phagemid from BCMA panning output were picked and phage were rescued in 96-well format using VCSM13 helper phage following standard protocols. To assay target binding by ELISA, 96-well plates were coated with 1.3 microg/ml goat anti-human IgG1-Fc antibody followed by incubation with 5 nM of recombinant human target (BCMA-Fc, CD123-Fc, AFP, or AFP123) or IgG1-Fc. 50 microl of rescued phage diluted 5× in ELISA blocking buffer was then added to each well. Binding was detected using an HRP-conjugated anti-M13 antibody and the ELISA ratio for each sequence is reported as the absorbance at 450 nm for target (i.e., BCMA-Fc, CD123-Fc, AFP, or AFP123) divided by that for IgG1-Fc averaged across all screened wells containing that clone.

Binder | ELISA_avg
B1 | 9.1 ratio A450 target/IgG1-Fc
B2 | 14.7 ratio A450 target/IgG1-Fc
B3 | 15.6 ratio A450 target/IgG1-Fc
B4 | 11.9 ratio A450 target/IgG1-Fc
B5 | 15.1 ratio A450 target/IgG1-Fc
B6 | 14.4 ratio A450 target/IgG1-Fc
B7 | 17.5 ratio A450 target/IgG1-Fc
B8 | 10.2 ratio A450 target/IgG1-Fc
B9 | 16.1 ratio A450 target/IgG1-Fc
B10 | 14.4 ratio A450 target/IgG1-Fc
B11 | 9.3 ratio A450 target/IgG1-Fc
B12 | 14.4 ratio A450 target/IgG1-Fc
B13 | 16.6 ratio A450 target/IgG1-Fc
B14 | 13.4 ratio A450 target/IgG1-Fc
B15 | 11.4 ratio A450 target/IgG1-Fc
B16 | 16.1 ratio A450 target/IgG1-Fc
B17 | 19.3 ratio A450 target/IgG1-Fc
B18 | 16 ratio A450 target/IgG1-Fc
B19 | 25.3 ratio A450 target/IgG1-Fc
B20 | 13.7 ratio A450 target/IgG1-Fc
B21 | 11.9 ratio A450 target/IgG1-Fc
B22 | 17.7 ratio A450 target/IgG1-Fc
B23 | 11.4 ratio A450 target/IgG1-Fc
B24 | 25.5 ratio A450 target/IgG1-Fc
B25 | 15.3 ratio A450 target/IgG1-Fc
B26 | 6.4 ratio A450 target/IgG1-Fc
B27 | 3.2 ratio A450 target/IgG1-Fc

Binder | ELISA_avg
B28 | 5.5 ratio A450 target/IgG1-Fc
B29 | 3.3 ratio A450 target/IgG1-Fc
B30 | 5.1 ratio A450 target/IgG1-Fc
B31 | 5.8 ratio A450 target/IgG1-Fc
B32 | 3.2 ratio A450 target/IgG1-Fc
B33 | 3.3 ratio A450 target/IgG1-Fc
B34 | 9.7 ratio A450 target/IgG1-Fc
B35 | 3.3 ratio A450 target/IgG1-Fc
B36 | 6.2 ratio A450 target/IgG1-Fc
B37 | 7.5 ratio A450 target/IgG1-Fc
B38 | 6 ratio A450 target/IgG1-Fc
B39 | 10.3 ratio A450 target/IgG1-Fc
B40 | 8.4 ratio A450 target/IgG1-Fc
B41 | 4.6 ratio A450 target/IgG1-Fc
B42 | 3.2 ratio A450 target/IgG1-Fc
B43 | 5.8 ratio A450 target/IgG1-Fc
B44 | 3.2 ratio A450 target/IgG1-Fc
B45 | 4.7 ratio A450 target/IgG1-Fc
B46 | 4.9 ratio A450 target/IgG1-Fc
B47 | 9.4 ratio A450 target/IgG1-Fc
B48 | 10.5 ratio A450 target/IgG1-Fc
B49 | 3.5 ratio A450 target/IgG1-Fc
B50 | 3.7 ratio A450 target/IgG1-Fc
B51 | 7.7 ratio A450 target/IgG1-Fc
B52 | 4.2 ratio A450 target/IgG1-Fc
B53 | 7.5 ratio A450 target/IgG1-Fc
